Four molecules from patent publication US20260028406A1 can be followed below.

Test [1] has as its target purified human tenascin C protein (human) (UniProt P24821). The test is described as follows: BLI (biolayer interferometry); format not described.
Test [2] shares this target. The test can be described thus: ELISA, plates coated with 3 ug/ml purified human TNC, increasing VHH concentration.
Test [3] deals with EIIIB domain of fibronectin. The test can be described thus: BLI (biolayer interferometry); format not described.
Sequence of EIIIB domain of fibronectin (P02751 1271-1359): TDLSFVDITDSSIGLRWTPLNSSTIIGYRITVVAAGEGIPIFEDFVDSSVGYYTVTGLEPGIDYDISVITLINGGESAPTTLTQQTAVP

Sequence of purified human tenascin C protein (human) (P24821 23-2201): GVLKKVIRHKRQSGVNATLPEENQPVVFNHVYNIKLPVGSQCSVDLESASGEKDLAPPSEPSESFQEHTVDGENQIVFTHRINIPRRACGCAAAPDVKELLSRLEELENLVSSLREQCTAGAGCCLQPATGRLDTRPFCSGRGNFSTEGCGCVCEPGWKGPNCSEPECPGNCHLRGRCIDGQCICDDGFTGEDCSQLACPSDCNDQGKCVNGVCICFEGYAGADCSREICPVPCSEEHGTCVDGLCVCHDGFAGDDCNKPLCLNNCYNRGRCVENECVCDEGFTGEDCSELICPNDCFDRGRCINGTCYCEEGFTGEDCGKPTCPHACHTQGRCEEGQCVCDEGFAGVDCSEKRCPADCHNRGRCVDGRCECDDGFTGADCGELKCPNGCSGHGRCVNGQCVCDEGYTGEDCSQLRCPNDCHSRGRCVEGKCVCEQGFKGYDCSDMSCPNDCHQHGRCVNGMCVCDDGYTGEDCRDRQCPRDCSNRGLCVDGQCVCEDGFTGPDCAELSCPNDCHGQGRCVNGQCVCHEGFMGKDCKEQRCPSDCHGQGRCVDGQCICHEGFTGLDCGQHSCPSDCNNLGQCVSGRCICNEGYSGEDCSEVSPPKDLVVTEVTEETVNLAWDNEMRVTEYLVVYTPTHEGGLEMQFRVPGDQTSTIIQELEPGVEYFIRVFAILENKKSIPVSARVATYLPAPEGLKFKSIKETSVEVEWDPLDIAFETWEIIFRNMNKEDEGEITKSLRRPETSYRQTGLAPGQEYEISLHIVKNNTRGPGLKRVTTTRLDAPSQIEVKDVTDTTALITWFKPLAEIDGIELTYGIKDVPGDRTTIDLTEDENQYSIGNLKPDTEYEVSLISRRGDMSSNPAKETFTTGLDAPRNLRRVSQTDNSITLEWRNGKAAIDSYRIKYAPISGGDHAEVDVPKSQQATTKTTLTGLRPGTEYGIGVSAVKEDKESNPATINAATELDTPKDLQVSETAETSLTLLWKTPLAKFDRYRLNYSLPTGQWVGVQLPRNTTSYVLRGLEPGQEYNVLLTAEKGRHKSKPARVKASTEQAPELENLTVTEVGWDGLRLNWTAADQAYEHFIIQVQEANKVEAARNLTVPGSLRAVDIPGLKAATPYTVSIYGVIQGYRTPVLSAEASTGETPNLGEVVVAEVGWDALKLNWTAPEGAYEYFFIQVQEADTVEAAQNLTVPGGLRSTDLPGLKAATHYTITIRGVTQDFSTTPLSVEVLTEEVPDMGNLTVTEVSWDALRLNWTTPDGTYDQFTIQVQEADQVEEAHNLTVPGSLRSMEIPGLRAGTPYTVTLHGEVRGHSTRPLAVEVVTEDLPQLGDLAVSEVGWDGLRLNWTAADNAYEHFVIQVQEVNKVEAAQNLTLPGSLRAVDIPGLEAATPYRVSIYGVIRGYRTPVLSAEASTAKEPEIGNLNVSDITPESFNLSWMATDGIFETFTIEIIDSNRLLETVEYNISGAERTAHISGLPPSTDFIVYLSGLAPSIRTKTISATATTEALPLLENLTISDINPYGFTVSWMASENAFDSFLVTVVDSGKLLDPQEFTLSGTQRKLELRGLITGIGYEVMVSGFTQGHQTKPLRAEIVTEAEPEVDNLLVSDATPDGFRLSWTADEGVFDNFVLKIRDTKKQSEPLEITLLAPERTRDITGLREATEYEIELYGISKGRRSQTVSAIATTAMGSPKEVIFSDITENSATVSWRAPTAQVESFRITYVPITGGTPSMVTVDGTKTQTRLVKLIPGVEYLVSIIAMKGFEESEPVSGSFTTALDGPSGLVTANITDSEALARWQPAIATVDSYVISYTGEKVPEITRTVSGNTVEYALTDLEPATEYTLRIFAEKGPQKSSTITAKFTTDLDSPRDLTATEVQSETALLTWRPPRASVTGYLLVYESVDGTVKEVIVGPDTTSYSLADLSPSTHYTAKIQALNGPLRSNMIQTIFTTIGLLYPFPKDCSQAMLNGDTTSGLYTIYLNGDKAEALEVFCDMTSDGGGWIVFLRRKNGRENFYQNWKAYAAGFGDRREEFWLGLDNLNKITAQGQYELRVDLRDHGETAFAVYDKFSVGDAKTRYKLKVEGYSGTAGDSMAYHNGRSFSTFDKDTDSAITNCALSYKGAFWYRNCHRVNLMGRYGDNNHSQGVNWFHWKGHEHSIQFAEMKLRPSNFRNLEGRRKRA

B1: NJT6 nanobody (VHH) (VHH)
VHH: QVQLVETGGDLVQPGGSLRLSCAASGLTLDYYAIGWVRQAPGKEREGVSCITPQDGNTYYDDSVMGRFTILRDNAKNMVYLQMNNLKPEDTAVYFCAAAGALTLDPSEYEYWGQGTQVTVSS
B1: in test [1], the Kd is less than 1 pM. In addition, the concentration giving a half-maximal response (EC50 (read off the curve)) in test [2] came to 0.01 ng/mL.

B2: NJB2 nanobody (VHH) (VHH)
VHH: QVQLVETGGGLVQAGGSLRLSCAASGSTFSHNAGGWYRQAPEKQRELVAGISSDGNINYADSVKDRFTISRDNASNTMYLQMNNLKPEDTAVYVCNIRGSYGNTYYSRWGQGTQVTVSS
On to B2, for which the Kd in test [3] is 4000 pM.

B3: NJT4 nanobody (VHH) (VHH)
VHH: QVQLVESGGGLVQPGGSLRLSCAASGFTFSSYTMRWYRQAPGKERELVAFIGVAGGSTKYADSVKGRFTISRDNTKNTVYLQMNTLKPEDTAVYYCYAPLTPYWGQGTQVTVSS
The molecule B3 returned a Kd in test [1] of less than 1 pM.

B4: NJT3 nanobody (VHH) (VHH)
VHH: QVQLVETGGGLAQAGGSLRLSCAASGRTLSGYAMGWFRQAPGKEREFVAAISWSGRNTYYDYTVQGRFTISKDNAKNTVNLQMNSLKPEDTAVYYCAVSRSLDEFGDGYEMDYWGDGTQVTVSS
B4 returned a Kd in test [1] of less than 1 pM. In test [2], the EC50 (read off the curve) was 0.02 ng/mL.
